In the supplement of paper PMC7125110:
± gives the standard error. For part of these data: This sample holds only a part of the variants without activity.

B1: glmS ribozyme (parent)
chain: AUAAAAGCGCCAGAACUACAGAAAUGUAGUUGACGAGGAGGAGGUUUAUCGAAUUUUCGGCGGAUGCCUCCAAA

How the values were obtained:
Conditions in all cases: with glucosamine-6-phosphate
glucosamine-6-phosphate [1] = variants of: B1; assay: kcat; higher = faster cleavage; RNA array
How it was run: (§1)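 Weighted Michaelis–Menten fits across concentrations supplied kcat and KM, based on kobs from one- or two-exponential decay fits to normalised per-tile medians. The data came from barcoded ribozyme variants transcribed in situ by E. coli RNA polymerase on sequenced MiSeq chips and tracked at 37 °C by a hybridised Cy3 probe. Glucosamine-6-phosphate (40 μM to 10 mM) in HEPES/KCl/Mg(OAc)2 buffer was flowed in.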

glucosamine-6-phosphate [2] = variants of: B1; assay: self-cleavage kobs at 640 uM GlcN6P; higher = faster cleavage; RNA array
How it was run: as §1

glucosamine-6-phosphate [3] = variants of: B1; assay: KM; higher = weaker cofactor use; RNA array
How it was run: as §1

glucosamine-6-phosphate [4] = variants of: B1; assay: self-cleavage kobs at 160 uM GlcN6P; higher = faster cleavage; RNA array
How it was run: as §1

glucosamine-6-phosphate [5] = variants of: B1; assay: self-cleavage kobs at 2500 uM GlcN6P; higher = faster cleavage; RNA array
How it was run: as §1

glucosamine-6-phosphate [6] = variants of: B1; assay: self-cleavage kobs at 10000 uM GlcN6P; higher = faster cleavage; RNA array
How it was run: as §1

glucosamine-6-phosphate [7] = variants of: B1; assay: self-cleavage kobs at 40 uM GlcN6P; higher = faster cleavage; RNA array
How it was run: as §1

Variant | kcat (glucosamine-6-phosphate [1]) [s⁻¹] | self-cleavage kobs at 640 uM GlcN6P (glucosamine-6-phosphate [2]) [s⁻¹] | KM (glucosamine-6-phosphate [3]) [µM] | self-cleavage kobs at 160 uM GlcN6P (glucosamine-6-phosphate [4]) [s⁻¹] | self-cleavage kobs at 2500 uM GlcN6P (glucosamine-6-phosphate [5]) [s⁻¹] | self-cleavage kobs at 10000 uM GlcN6P (glucosamine-6-phosphate [6]) [s⁻¹] | self-cleavage kobs at 40 uM GlcN6P (glucosamine-6-phosphate [7]) [s⁻¹]
G7U A36C A48U | < 1e-05 | < 1e-05 | – | – | – | – | –
G7U A52G C70G | 3.01e-05 ± 9.2e-06 | – | – | – | – | – | –
A6G A39U | 0.000276 ± 7.5e-06 | 8.14e-05 ± 1.2e-05 | 1490 ± 84 | 2.95e-05 ± 1.1e-05 | 0.000176 ± 2.3e-05 | 0.000239 ± 3.2e-05 | –
G9U C61G | 0.000192 ± 1.7e-05 | 4.57e-05 ± 1.2e-05 | 2350 ± 460 | – | 9.21e-05 ± 1.7e-05 | 0.00016 ± 2.5e-05 | < 1e-05
A6G U56G U69G | 1.41e-05 ± 3e-06 | – | – | – | – | – | –
C10G A39G | < 1e-05 | – | – | < 1e-05 | – | – | –
C11A G13A | < 1e-05 | – | – | – | – | – | < 1e-05
C11A C71U | 0.000122 ± 1.1e-05 | 7.03e-05 ± 1.1e-05 | 451 ± 210 | – | 0.000147 ± 2.3e-05 | 0.000113 ± 8e-06 | –
G9U G59A | < 1e-05 | – | – | – | < 1e-05 | – | < 1e-05
C11A A14C | 6.31e-05 ± 3.4e-06 | – | 2820 ± 410 | – | 3.05e-05 ± 1.3e-05 | 4.9e-05 ± 1.5e-05 | –
C11A A14U | 9.91e-05 ± 4.5e-06 | 4.4e-05 ± 1e-05 | 947 ± 180 | – | 6.89e-05 ± 9.1e-06 | 9.18e-05 ± 8.6e-06 | –
G7C C10G C67G | 1.87e-05 ± 2.3e-06 | – | – | – | – | – | –
C11U A14C | 0.000773 ± 0.00026 | 0.000151 ± 2.1e-05 | – | 8.34e-05 ± 1.7e-05 | 0.000275 ± 5.2e-05 | 0.000712 ± 8.5e-05 | –
C11G A33U U54G C67A C71U | 1.15e-05 ± 1.8e-06 | – | – | – | – | – | –
A6U C16U | 0.000238 ± 2.8e-05 | 6.36e-05 ± 7.9e-06 | 1970 ± 520 | 2.54e-05 ± 9.5e-06 | 0.000118 ± 1.2e-05 | 0.00021 ± 1.7e-05 | –
A6U C16G | 5.15e-05 ± 3.5e-06 | – | 3290 ± 720 | – | 2.28e-05 ± 1e-05 | 3.87e-05 ± 6.9e-06 | –
C10A A39G | < 1e-05 | < 1e-05 | – | < 1e-05 | – | – | –
C11G G63A C68U | < 1e-05 | – | – | – | – | – | –
A6C U65G | 2.87e-05 ± 1.5e-06 | – | 342 ± 150 | – | – | 2.71e-05 ± 1.1e-05 | –
A6U U69C | 8.65e-05 ± 8.1e-06 | 6.1e-05 ± 2.4e-05 | – | – | 8.15e-05 ± 2.4e-05 | 7.96e-05 ± 1.8e-05 | –
G7C A53G | < 1e-05 | – | – | – | – | < 1e-05 | –
A1G G37U | 1.48e-05 ± 2.9e-06 | < 1e-05 | – | – | – | – | –

Variant | kcat (glucosamine-6-phosphate [1]) [s⁻¹] | self-cleavage kobs at 640 uM GlcN6P (glucosamine-6-phosphate [2]) [s⁻¹] | KM (glucosamine-6-phosphate [3]) [µM] | self-cleavage kobs at 160 uM GlcN6P (glucosamine-6-phosphate [4]) [s⁻¹] | self-cleavage kobs at 2500 uM GlcN6P (glucosamine-6-phosphate [5]) [s⁻¹] | self-cleavage kobs at 10000 uM GlcN6P (glucosamine-6-phosphate [6]) [s⁻¹] | self-cleavage kobs at 40 uM GlcN6P (glucosamine-6-phosphate [7]) [s⁻¹]
A6U C68A | < 1e-05 | – | – | – | – | – | –
C11A G59U | 0.0133 ± 0.0031 | 0.00335 ± 0.00043 | 2310 ± 700 | 0.000683 ± 8.7e-05 | 0.00743 ± 0.0012 | 0.0105 ± 0.0013 | 0.000273 ± 2.8e-05
C8U C11U C34G A36U | 1.07e-05 ± 9.9e-07 | – | – | < 1e-05 | – | – | –
C10A G38A | < 1e-05 | – | – | – | – | – | < 1e-05
G9U A14G | 1.09e-05 ± 5.1e-06 | – | – | – | < 1e-05 | < 1e-05 | < 1e-05
C10G G37U | < 1e-05 | – | – | – | – | – | –
C8A C70U | < 1e-05 | – | – | < 1e-05 | – | – | –
C8A C70A | 1.28e-05 ± 2.3e-06 | – | – | – | – | – | –
C10A U31G | < 1e-05 | < 1e-05 | – | – | < 1e-05 | – | –
C11G G37U | 1.74e-05 ± 6.6e-06 | – | – | – | < 1e-05 | < 1e-05 | < 1e-05
C10A G59A C68G U69C | 3.77e-05 ± 1.1e-05 | – | – | – | – | – | –
A6U C71G | 3.27e-05 ± 8.4e-06 | 5.72e-05 ± 1.3e-05 | – | – | 2.85e-05 ± 1e-05 | 2.69e-05 ± 8e-06 | –
A6U C71A | 5.43e-05 ± 1.1e-06 | – | 1730 ± 140 | – | 3.22e-05 ± 1.3e-05 | 4.63e-05 ± 1.1e-05 | –
C11G C16U | < 1e-05 | – | – | < 1e-05 | – | – | –
C11A A53G | 0.000202 ± 9.2e-06 | 4.47e-05 ± 1e-05 | 2130 ± 240 | – | 0.000112 ± 1.2e-05 | 0.000164 ± 1.8e-05 | –
G9U A33U | < 1e-05 | < 1e-05 | – | < 1e-05 | – | < 1e-05 | –
A6G U65A | 7.49e-05 ± 1.1e-05 | – | – | – | 4.41e-05 ± 1.2e-05 | 6.05e-05 ± 9.8e-06 | –
C10A U47A U57A C70U | 3.44e-05 ± 1.3e-05 | – | – | – | – | – | –
C8G C61A | < 1e-05 | – | – | < 1e-05 | < 1e-05 | – | < 1e-05
A6U C61G | < 1e-05 | < 1e-05 | – | < 1e-05 | – | – | –
U2A G29U | 0.00852 ± 0.0033 | 0.00137 ± 0.00032 | – | 0.000569 ± 0.00018 | – | 0.00749 ± 0.0017 | 0.000181 ± 3.8e-05
